Reference: patent US8022177B2, “Peptides and calcium regulation in mammalian cells” (The Board of Trustees of the University of Illinois, priority 2005, dated 2011)

Biological target: T1, Cav3.1 (Homo sapiens, UniProt O43497)
T1 construct: expressed in transfected cells; host or cells: HEK-293, stably transfected
Experiment: Whole-cell patch clamp of Cav3.1 LVA current in HEK/Cav3.1 cells transfected with γ6/γ4 chimeric and truncated constructs (Example 2)
Format: cell-based
Settings: Table 1 (Example 2)
Procedure: Transfection—HEK-293 cell lines stably transfected with Cav3.1 were transiently transfected with vectors containing γ subunit cDNAs using Lipofectamine 2000 reagent (Invitrogen) as per the manufacturer's recommendations. HEK-293 cells were grown to 70-80% confluence before transfection.
Electrophysiology—Whole-cell calcium currents were recorded using an Axopatch-1D patch clamp system and Clampex 8.0 software. Pipettes were fabricated from borosilicate glass and had typical resistances of 2-4 MΩ. The pipette solution contained (in mM): 130 NaCl, 10 EGTA, 2 MgCl2, 1 CaCl2, 10 HEPES, 3 Tris-ATP, and 0.3 Tris-GTP, adjusted to pH 7.4 with NaOH and 280 mOsm with sucrose. The bath solution contained (in mM): 137 NaCl, 1 KCl, 1 MgCl2, 0.33 NaH2PO4, 2 CaCl2, 10 HEPES, and 30 μM TTX, adjusted to pH 7.4 with NaOH and 280 mOsm with sucrose.
Recordings from HEK-293 cells were made 48-96 hours post-transfection, at which time expression, as measured by GFP fluorescence, peaked. All HEK-293 data is from current records in which pipette and whole-cell capacitance were about 100% compensated and series resistance was compensated to >80%. Series resistance values were typically <10 MΩ (megaohms), and no records were used in which the voltage error (as defined by Ver=Imax×Ra) was greater than 5 mV. The holding potential of all protocols used for HEK-293 cells was −100 mV except for steady-state inactivation protocols where the holding potential was −120 mV. Current-voltage relationships for all HEK-293 cells were measured using 50 ms test depolarizations. Peak current amplitudes for activation curves were determined by fitting tail currents, elicited by stepping membrane voltage from varying test potentials to −60 mV, with the Boltzman equation. Test potential steps for activation protocols were of varied durations, corresponding to the time to peak of the elicited current. Inactivation curves were determined by fitting peak amplitudes of currents, observed in a test pulse to −20 mV, following 500 ms steps to varying potentials, with the Boltzman equation. Time to peak was determined using the current-voltage protocol described above. Inactivation time constants were determined by fitting the decay phase of currents to an exponential equation and deactivation time constants were determined by fitting the decay phase of tail currents to an exponential equation. […] When a double exponential equation was used to fit Cav3.1 tail currents, the magnitude of the fast component was about 10 fold that of the slow component. Currents were recorded at 40 kHz and on-line filtered at 5. In some cases currents were off-line filtered at 1 kHz to further reduce noise. Current-voltage relationships and tail currents were recorded from HEK cells using an on-line P/−4 subtraction procedure. The average membrane capacitance of untransfected HEK-293 cells in pilot experiments was 12.5+/−0.4 pF (n=8).
Statistical Analysis—All data are reported as mean±SEM and tested for significance by one-way ANOVA. A value of P<0.05 was considered significant and when significant p-values were encountered groups were compared using the Tukey post-hoc test.

T1 sequence (O43497 whole entry): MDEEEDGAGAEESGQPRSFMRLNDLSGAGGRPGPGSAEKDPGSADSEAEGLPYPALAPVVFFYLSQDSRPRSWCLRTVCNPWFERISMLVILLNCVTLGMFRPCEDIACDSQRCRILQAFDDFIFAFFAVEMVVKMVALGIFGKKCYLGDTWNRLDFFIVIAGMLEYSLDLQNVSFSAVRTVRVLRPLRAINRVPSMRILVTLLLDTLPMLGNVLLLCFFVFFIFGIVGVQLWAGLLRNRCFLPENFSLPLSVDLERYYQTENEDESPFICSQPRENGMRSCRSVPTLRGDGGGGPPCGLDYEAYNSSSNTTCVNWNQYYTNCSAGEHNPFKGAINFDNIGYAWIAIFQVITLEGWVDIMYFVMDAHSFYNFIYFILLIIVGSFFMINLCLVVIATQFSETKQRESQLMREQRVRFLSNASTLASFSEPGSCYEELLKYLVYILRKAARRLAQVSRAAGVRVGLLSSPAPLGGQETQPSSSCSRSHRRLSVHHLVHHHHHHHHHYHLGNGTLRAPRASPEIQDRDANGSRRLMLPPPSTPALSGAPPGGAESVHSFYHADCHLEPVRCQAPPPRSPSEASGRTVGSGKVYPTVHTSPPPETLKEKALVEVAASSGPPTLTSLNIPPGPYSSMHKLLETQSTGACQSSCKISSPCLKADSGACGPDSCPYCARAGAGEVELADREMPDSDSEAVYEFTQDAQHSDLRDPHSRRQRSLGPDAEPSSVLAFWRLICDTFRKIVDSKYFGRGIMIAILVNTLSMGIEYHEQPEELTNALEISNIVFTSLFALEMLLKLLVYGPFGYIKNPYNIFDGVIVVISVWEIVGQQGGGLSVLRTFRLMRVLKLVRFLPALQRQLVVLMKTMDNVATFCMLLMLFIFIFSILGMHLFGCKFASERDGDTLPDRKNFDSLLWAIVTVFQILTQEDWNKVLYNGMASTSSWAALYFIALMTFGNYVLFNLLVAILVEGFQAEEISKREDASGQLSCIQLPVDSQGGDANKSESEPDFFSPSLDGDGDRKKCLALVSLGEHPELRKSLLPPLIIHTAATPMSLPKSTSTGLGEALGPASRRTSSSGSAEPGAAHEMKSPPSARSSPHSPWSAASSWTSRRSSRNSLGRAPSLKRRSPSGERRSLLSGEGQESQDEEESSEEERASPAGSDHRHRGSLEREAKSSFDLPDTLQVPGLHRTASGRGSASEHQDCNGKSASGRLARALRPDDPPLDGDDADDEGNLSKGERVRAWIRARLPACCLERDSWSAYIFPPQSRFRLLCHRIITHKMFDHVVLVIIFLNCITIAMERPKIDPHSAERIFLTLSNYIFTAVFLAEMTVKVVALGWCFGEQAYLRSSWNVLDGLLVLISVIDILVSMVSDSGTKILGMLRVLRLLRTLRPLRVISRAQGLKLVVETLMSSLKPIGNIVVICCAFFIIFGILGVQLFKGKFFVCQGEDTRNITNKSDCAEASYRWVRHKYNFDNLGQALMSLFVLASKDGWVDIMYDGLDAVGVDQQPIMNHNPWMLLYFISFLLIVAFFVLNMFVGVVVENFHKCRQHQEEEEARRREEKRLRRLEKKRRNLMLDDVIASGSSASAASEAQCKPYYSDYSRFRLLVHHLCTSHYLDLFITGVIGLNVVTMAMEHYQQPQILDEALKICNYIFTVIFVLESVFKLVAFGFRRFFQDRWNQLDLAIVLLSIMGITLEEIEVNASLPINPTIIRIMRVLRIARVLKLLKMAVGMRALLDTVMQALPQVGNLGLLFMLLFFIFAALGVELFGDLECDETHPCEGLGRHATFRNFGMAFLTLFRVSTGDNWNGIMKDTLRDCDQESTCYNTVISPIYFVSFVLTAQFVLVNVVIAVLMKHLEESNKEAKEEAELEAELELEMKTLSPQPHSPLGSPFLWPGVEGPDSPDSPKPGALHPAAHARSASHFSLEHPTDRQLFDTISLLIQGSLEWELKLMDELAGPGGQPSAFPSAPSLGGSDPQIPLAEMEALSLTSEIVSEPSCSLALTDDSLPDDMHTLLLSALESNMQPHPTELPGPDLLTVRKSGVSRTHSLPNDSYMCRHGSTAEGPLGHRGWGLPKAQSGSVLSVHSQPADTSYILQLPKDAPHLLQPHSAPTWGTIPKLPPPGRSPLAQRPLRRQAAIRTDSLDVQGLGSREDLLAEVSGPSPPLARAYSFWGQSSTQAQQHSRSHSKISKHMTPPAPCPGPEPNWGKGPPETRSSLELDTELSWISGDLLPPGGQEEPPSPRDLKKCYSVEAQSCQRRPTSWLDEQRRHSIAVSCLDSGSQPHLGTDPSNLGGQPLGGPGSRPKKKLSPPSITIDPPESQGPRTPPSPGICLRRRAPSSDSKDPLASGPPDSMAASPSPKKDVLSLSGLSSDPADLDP

B1: γ4: rat calcium channel γ4 subunit (AF361341), SEQ ID NO:47 (protein, listed as Rattus norvegicus)
chain: MVRCDRGLQMLLTTAGAFAAFSLMAIAIGTDYWLYSSAHICNGTNLTMDDGPPPRRARGDLTHSGLWRVCCIEGIYKGHCFRINHFPEDNDYDHDSSEYLLRIVRASSVFPILSTILLLLGGLCIGAGRIYSRKNNIVLSAGILFVAAGLSNIIGIIVYISSNTGDPSDKRDEDKKNHYNYGWSFYFGALSFIVAETVGVLAVNIYIEKNKELRFKTKREFLKASSSSPYSRMPSYRYRRRRSRSSSRSTEASPSRDASPVGLKITGAIPMGELSMYTLSREPLKVTTAASYSPDQDAGFLQMHDFFQQDLKEGFHVSMLNRRTTPV
Q: Which “Activation V 0.5” value does the source give for B1 here?
A: The value was −37.3 ± 0.9 (n = 8) mV.

Q: And the Activation k?
A: The Activation k was 11.8 ± 0.5 (n = 8).

Q: And the “Deactivation tau @ −100 mV, Fast” value?
A: The value was 1.84 ± 0.28 (n = 8) ms.

Q: What about the “Inactivation V 0.5” value of the same molecule?
A: Its value is −79.2 ± 1.5 (n = 7) mV.

Q: And the Inactivation k?
A: Its Inactivation k is 6.1 ± 0.2 (n = 7).

Q: What about the “Inactivation tau @−20 mV” value of the same molecule?
A: Its value is 15.8 ± 0.7 (n = 7) ms.

Q: What about the “Time to peak @ −20 mV” value of the same molecule?
A: Its value is 5.2 ± 0.5 (n = 9) ms.

Q: And the V peak?
A: The V peak was −30.6 ± 1.5 (n = 9) mV.

B2: γ6L: rat calcium channel γ6 subunit, long isoform (AF361343), SEQ ID NO:48 (protein, listed as Rattus norvegicus)
chain: MMWSNFFMQEEDRRRTAVGRRRAQEQQNLGLTPEREGKIKLGLLVAIVGATLAVLAVGTEFWVELNTYKTNGSAVCEAAHLGLWKVCIKRLWQADVPAGRETCGPAELPGEANCTYFKFFTTGENAHIFQRTTKKEVNLAAAVIAVLGLTAMALGCLCVIMVLSKGAEFLLRLGAVCFGLSGLLLFVSLEVFRHSVRALLQGVNPETPPAPRLAYEYSWSLGCGVGAGLILLLGGVCFLLLTLPSWPWRSLCPKRGGPTA
Q: Which results are given for B2?
A: Activation V 0.5: −36.3 ± 6.2 (n = 4) mV; Activation k: 12.7 ± 1.5 (n = 4); Deactivation tau @ −100 mV, Fast: 1.54 ± 0.48 (n = 4) ms; Inactivation V 0.5: −78.5 ± 2.6 (n = 6) mV; Inactivation k: 5.4 ± 0.3 (n = 6); Inactivation tau @−20 mV: 18.6 ± 1.1 (n = 6) ms; Time to peak @ −20 mV: 6.0 ± 0.8 (n = 5) ms; V peak: −31.1 ± 3.1 (n = 9) mV
